Laboratory results reported in paper PMC10805704, “VCIP135 associates with both the N- and C-terminal regions of p97 ATPase” (The Journal of Biological Chemistry, 2023).

B1: His-tagged VCIP135(1-743) (domain or fragment, rat, UniProt Q8CF97 1-743, looked up)
chain: MSQPPPPPPLPPPPPPPEAPQTSSSLAAAATPGGLSKRRDRRILSGSCPDPKCQARLFFPASGSVSIECTECGQRHEQQQLLGVEEVTDPDVVLHNLLRNALLGVTGAPKKNTELVKVMGLSNYHCKLLSPILARYGMDKQTGRAKLLRDMNQGELFDCALLGDRAFLIEPEHVNTVGYGKDRSGSLLYLHDTLEDIKRANKSQECLIPVHVDGDGHCLVHAVSRALVGRELFWHALRENLKQHFQQHLARYQALFHDFIDAAEWEDIINECDPLFVPPEGVPLGLRNIHIFGLANVLHRPIILLDSLSGMRSSGDYSATFLPGLIPAEKCTGRDGHLNKPICIAWSSSGRNHYIPLVGIKGAALPKLPMNLLPKAWGVPQDLIKKYIKLEEDGGCVIGGDRSLQDKYLLRLVAAMEEVFMDKHGIHPSLVADVHQYFYRRTGVIGVQPEEVTAAAKKAVMDNRLHKCLLCGALSELHVPPEWLAPGGKLYNLAKSTHGQLRPDKNYSFPLNNLVCSYDPVKDVLLPDYGLSNLTACNWCHGTSVRRVRGDGSIVYLDGDRTNSRSTGGKCGCGFKHFWEGKEYDNLPEAFPITLEWGGRVVRETVYWFQYESDPSLNSNVYDVAMKLVTKHFPGEFGSEILVQKVVHTILHQTAKKNPDDYTPVNIDGAHAQRIGDVQGQELESQLPTKIILTGQKTKTLHKEELNMSKTERTIQQNITEQASVMQKRKTEKLKQEQKGQPR
notes: also called N-terminal half of VCIP135
B2: His-tagged VCIP135(744-1221) (domain or fragment, rat, UniProt Q8CF97 744-1221, looked up)
chain: TVSPSTIRDGPSSAPATPTKAPYSPTTSKEKKIRITTNDGRQSMVTLKSSTTFFELQESIAREFNIPPYLQCIRYGFPPKELMPPQAGMEKEPVPLQHGDRITIEILKGKAEGGPSTAAHSAHTVRQEEIAVTGKLSSKELQEQADKEMYSLCLLATLMGEDVWSYAKGLPHMFQQGGVFYNIMKKTMGMADGKHCTFPHLPGKTFVYNASEDRLELCVDAAGHFPIGPDVEDLVKEAVSQVRAEATTRSRESSPSHGLLKLGSGGVVKKKSEQLHNVTAFQGKGHSLGTASSNPHMDPRARETLAVRKHNTGTDFSNSSIKTEPPVFTAASSNSELIRIAPGVVTMRDGRQIDPDVVEAQRKKLQEMVSSIQASMDKHLRDQSTEQTPSDLSQRKVEAVSSSVRPGNLQTGLPESFSLTGGTENLNTETTDSRVADVLGAAFATRSKAQKENSMEEPEEMDSQDAETTNTTEPMDHS
notes: also called C-terminal half of VCIP135
B3: His-tagged VCIP135(1-390) (domain or fragment, rat, UniProt Q8CF97 1-390, looked up)
chain: MSQPPPPPPLPPPPPPPEAPQTSSSLAAAATPGGLSKRRDRRILSGSCPDPKCQARLFFPASGSVSIECTECGQRHEQQQLLGVEEVTDPDVVLHNLLRNALLGVTGAPKKNTELVKVMGLSNYHCKLLSPILARYGMDKQTGRAKLLRDMNQGELFDCALLGDRAFLIEPEHVNTVGYGKDRSGSLLYLHDTLEDIKRANKSQECLIPVHVDGDGHCLVHAVSRALVGRELFWHALRENLKQHFQQHLARYQALFHDFIDAAEWEDIINECDPLFVPPEGVPLGLRNIHIFGLANVLHRPIILLDSLSGMRSSGDYSATFLPGLIPAEKCTGRDGHLNKPICIAWSSSGRNHYIPLVGIKGAALPKLPMNLLPKAWGVPQDLIKKYIKL
notes: VCIP135, rat, residues 1-390
B4: His-tagged VCIP135(903-1053) (domain or fragment, rat, UniProt Q8CF97 903-1053, looked up)
chain: GEDVWSYAKGLPHMFQQGGVFYNIMKKTMGMADGKHCTFPHLPGKTFVYNASEDRLELCVDAAGHFPIGPDVEDLVKEAVSQVRAEATTRSRESSPSHGLLKLGSGGVVKKKSEQLHNVTAFQGKGHSLGTASSNPHMDPRARETLAVRKH

Biological target: T1, endogenous p97 purified from rat liver cytosol, biotinylated (rat (endogenous in rat liver), UniProt P46462 1-806, biotinylated using EZ-Link Sulfo-NHS-LC-biotin (sites not given))
T1 construct: p97 ATPase (VCP), endogenous protein purified from rat liver cytosol; Held on streptavidin beads through the biotin; also called p97ATPase; VCP; source: purified from rat liver cytosol
T1 sequence (P46462 whole entry): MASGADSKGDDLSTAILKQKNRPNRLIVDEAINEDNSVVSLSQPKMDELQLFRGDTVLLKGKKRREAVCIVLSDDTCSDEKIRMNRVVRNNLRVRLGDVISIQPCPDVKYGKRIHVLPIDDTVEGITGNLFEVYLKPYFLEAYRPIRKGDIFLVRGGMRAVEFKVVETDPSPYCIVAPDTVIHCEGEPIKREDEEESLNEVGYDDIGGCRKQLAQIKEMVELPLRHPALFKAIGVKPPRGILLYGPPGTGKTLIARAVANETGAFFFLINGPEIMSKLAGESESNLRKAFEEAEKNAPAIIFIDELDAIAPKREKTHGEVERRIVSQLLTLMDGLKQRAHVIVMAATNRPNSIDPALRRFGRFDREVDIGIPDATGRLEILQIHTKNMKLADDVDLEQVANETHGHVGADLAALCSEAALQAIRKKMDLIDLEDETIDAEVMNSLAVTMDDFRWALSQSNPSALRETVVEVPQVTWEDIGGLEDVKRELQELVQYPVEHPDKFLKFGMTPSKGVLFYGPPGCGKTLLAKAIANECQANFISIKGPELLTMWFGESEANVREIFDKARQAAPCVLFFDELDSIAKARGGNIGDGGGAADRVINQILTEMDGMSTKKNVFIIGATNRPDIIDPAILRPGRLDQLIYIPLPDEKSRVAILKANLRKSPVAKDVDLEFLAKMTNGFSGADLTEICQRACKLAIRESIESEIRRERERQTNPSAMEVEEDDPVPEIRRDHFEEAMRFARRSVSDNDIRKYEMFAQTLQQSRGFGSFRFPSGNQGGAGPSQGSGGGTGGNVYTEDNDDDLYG
Assay: pull-down; endogenous rat liver p97, biotinylated, immobilised on streptavidin beads; His-tagged VCIP135 or its fragments or mutants in solution; 1 mM AMP-PNP (Figs 1A, 5C, 5D: the indicated nucleotide, 1 mM); 20 mM HEPES, 100 mM KCl, 1 mM MgCl2, 1 mM DTT, 0.5% CHAPS, 10% glycerol, pH 7.4; Western blot with antibodies to p97 and His-tag
Settings: both partners purified

| Binder | binding result |
| --- | --- |
| B1 | binds |
| B2 | binds |
| B3 | binds |
| B4 | binds |
